According to patent US20040038236A1:

Tests used:
[1] = molecular target: GABAA receptor alpha-1 subunit (GABRA1) (human) (UniProt P14867); assay: cell-based or functional assay
[2] = molecular target: GABAA receptor beta-2 subunit (GABRB2) (human) (UniProt P47870); assay: cell-based or functional assay
Sequence of GABAA receptor beta-2 subunit (GABRB2) (human) (P47870 26-512): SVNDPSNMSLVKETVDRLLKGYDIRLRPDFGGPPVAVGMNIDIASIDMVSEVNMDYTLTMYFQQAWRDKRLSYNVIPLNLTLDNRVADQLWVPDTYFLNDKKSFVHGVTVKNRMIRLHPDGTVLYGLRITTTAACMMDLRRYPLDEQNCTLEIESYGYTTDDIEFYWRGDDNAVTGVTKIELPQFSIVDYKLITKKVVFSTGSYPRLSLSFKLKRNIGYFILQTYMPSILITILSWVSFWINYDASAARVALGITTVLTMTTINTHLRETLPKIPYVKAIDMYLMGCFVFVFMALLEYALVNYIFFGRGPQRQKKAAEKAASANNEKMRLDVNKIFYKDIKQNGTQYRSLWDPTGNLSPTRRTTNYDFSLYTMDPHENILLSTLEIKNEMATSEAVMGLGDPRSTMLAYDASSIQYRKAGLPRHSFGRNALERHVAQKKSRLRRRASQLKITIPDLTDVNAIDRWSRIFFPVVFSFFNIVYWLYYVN

Sequence of GABAA receptor alpha-1 subunit (GABRA1) (human) (P14867 28-456): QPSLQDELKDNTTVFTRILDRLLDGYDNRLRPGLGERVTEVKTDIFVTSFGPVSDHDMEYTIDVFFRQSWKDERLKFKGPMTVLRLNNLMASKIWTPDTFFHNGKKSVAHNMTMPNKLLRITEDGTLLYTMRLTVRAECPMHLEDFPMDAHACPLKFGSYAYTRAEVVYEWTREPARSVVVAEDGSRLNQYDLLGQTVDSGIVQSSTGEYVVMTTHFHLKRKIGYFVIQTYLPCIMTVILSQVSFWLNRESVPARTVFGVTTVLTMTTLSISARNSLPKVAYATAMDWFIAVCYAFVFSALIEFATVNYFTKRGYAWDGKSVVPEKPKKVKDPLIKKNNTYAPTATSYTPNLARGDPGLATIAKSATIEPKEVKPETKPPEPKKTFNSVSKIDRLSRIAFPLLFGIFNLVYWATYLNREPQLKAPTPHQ

Substance	partial inhibition of the GABA current by Zn2+ (10 µM), Xenopus oocytes, two-electrode voltage clamp [1]	partial inhibition of the GABA current by Zn2+ (10 µM), Xenopus oocytes, two-electrode voltage clamp [2]
GABAA receptor gamma-2 subunit R43Q mutant, GABRG2(R43Q) (from UniProt P18507 40-475)	40%	40%
wild-type GABAA receptor gamma-2 subunit (GABRG2) (from UniProt P18507 40-475)	37%	37%
